Each block holds one binder with its values, some of them ahead of it.
Legend:
Assay in all cases: peptide microarray, 0.04 ug/mL
Peptide_013 = molecular target: T1, Peptide_013 (human)
T1 construct: 15-mer on microarray; not native form, includes recombinant insert region
T1 peptide: HHHHHHVKQIESKTA
Experimental: (§1) 5, 1, 0.2, 0.04, 0.008 and 0.0016 μg/mL serial dilutions were incubated on a single multi-well microarray slide at 30° C. for 1 hour. The slide includes 21 individual mini-arrays (one mini-array per sample dilution).
(§2) DyLight 650 was used as a label. False-positive binding to a peptide was evaluated by performing one additional control incubation in which only a secondary antibody was applied on the same microarray slide. Before performing each step, the microarrays were washed with a washing buffer.

Peptide_015 = molecular target: T2, Peptide_015 (human)
T2 construct: 15-mer on microarray; not native form, includes recombinant insert region
T2 peptide: HHHHVKQIESKTAFQ
Experimental: as §1, §2

Peptide_018 = molecular target: T3, Peptide_018 (human)
T3 construct: 15-mer on microarray; not native form, includes recombinant insert region; also called HVKQIESKTAFQEAL
T3 peptide: HVKQIESKTAFQEAL
Experimental: as §1, §2

Peptide_019 = molecular target: T4, Peptide_019 (human)
T4 construct: 15-mer of hTrx1 on microarray
T4 peptide: VKQIESKTAFQEALD
Experimental: as §1, §2

Peptide_020 = molecular target: T5, Peptide_020 (human)
T5 construct: 15-mer of hTrx1 on microarray
T5 peptide: KQIESKTAFQEALDA
Experimental: as §1, §2

Peptide_021 = molecular target: T6, Peptide_021 (human)
T6 construct: 15-mer of hTrx1 on microarray
T6 peptide: QIESKTAFQEALDAA
Experimental: as §1, §2

Peptide_022 = molecular target: T7, Peptide_022 (human)
T7 construct: 15-mer of hTrx1 on microarray
T7 peptide: IESKTAFQEALDAAG
Experimental: as §1, §2

Peptide_023 = molecular target: T8, Peptide_023 (human)
T8 construct: 15-mer of hTrx1 on microarray
T8 peptide: ESKTAFQEALDAAGD
Experimental: as §1, §2

Peptide_024 = molecular target: T9, Peptide_024 (human)
T9 construct: 15-mer of hTrx1 on microarray
T9 peptide: SKTAFQEALDAAGDK
Experimental: as §1, §2

Peptide_045 = molecular target: T10, Peptide_045 (human)
T10 construct: 15-mer of hTrx1 on microarray
T10 peptide: SATWCGPCKMIKPFF
Experimental: as §1, §2

Peptide_051 = molecular target: T11, Peptide_051 (human)
T11 construct: 15-mer of hTrx1 on microarray
T11 peptide: PCKMIKPFFHSLSEK
Experimental: as §1, §2

Peptide_084 = molecular target: T12, Peptide_084 (human)
T12 construct: 15-mer of hTrx1 on microarray
T12 peptide: SECEVKCMPTFQFFK
Experimental: as §1, §2

Peptide_085 = molecular target: T13, Peptide_085 (human)
T13 construct: 15-mer of hTrx1 on microarray
T13 peptide: ECEVKCMPTFQFFKK
Experimental: as §1, §2

Peptide_092 = molecular target: T14, Peptide_092 (human)
T14 construct: 15-mer of hTrx1 on microarray
T14 peptide: PTFQFFKKGQKVGEF
Experimental: as §1, §2

Peptide_093 = molecular target: T15, Peptide_093 (human)
T15 construct: 15-mer of hTrx1 on microarray
T15 peptide: TFQFFKKGQKVGEFS
Experimental: as §1, §2

Peptide_005 = molecular target: T16, Peptide_005 (human)
T16 construct: 15-mer on microarray; not native form, recombinant insert region
T16 peptide: ADVHSQHHHHHHHHV
Experimental: as §1, §2

signal (blank-control = 1) (Peptide_013): 1.4
signal (blank-control = 1) (Peptide_015): 1.69
signal (blank-control = 1) (Peptide_018): 1.64
signal (blank-control = 1) (Peptide_019): 1.2
signal (blank-control = 1) (Peptide_020): 1.33
signal (blank-control = 1) (Peptide_021): 1.35
signal (blank-control = 1) (Peptide_022): 2.89
signal (blank-control = 1) (Peptide_023): 1.15
signal (blank-control = 1) (Peptide_024): 2.38
signal (blank-control = 1) (Peptide_045): 4.59
signal (blank-control = 1) (Peptide_051): 1.41
signal (blank-control = 1) (Peptide_084): 1.83
signal (blank-control = 1) (Peptide_085): 1.48
signal (blank-control = 1) (Peptide_092): 5.18
signal (blank-control = 1) (Peptide_093): 2.46
B1: monoclonal antibody B264 (antibody, mouse IgG1, kappa, V domains shown)
VH: QVQLQQSGAELARPGASVKMSCKASGYTFTSYTMHWVKQRPGQGLEWIGYINPTSDYTNYNQKFKDKATLTADKSSSTAYMQLSSLTSEDSAVYFCASEGGFLYYFDYWGQGTTLTVSS
VL: DVLMTQTPLSLPVSLGDQASISCRSSQSIVHSNGNTYLEWYLQKPGQSPKLLIYKVSNRFSGVPDRFSGSGSGTDFTLKISRVEAEDLGVYYCFQGSHVPYTFGGGTKLEIKR
notes: also called AB264; B264 (Trx1-mIgG1)

signal (blank-control = 1) (Peptide_005): 1.6
B2: monoclonal antibody B266-1 (antibody, human IgG1)
light: QIVLTQSPAIMSASPGEKVTMTCSASSRISYMYWYQQKPGTSPKRWIYDTSKLASGVPARFSGSGSGTSYSLTISTMEAEDAATYYCHQRSSYPTFGAGTKLELKSVAAPSVFIFPPSDEQLKSGTASVVCLLNNFYPREAKVQWKVDNALQSGNSQESVTEQDSKDSTYSLSSTLTLSKADYEKHKVYACEVTHQGLSSPVTKSFNRGEC
heavy: not shown
notes: B266 with the Fc part changed to human IgG1; also called B266-1 (Trx1-hIgG1); B266-1 (hTrx1-hIgG1)
